Measurements from patent US20160244525A1.

Experiments:
FGFR3-IIIb (human) [1] = experiment: SPR
FGFR3-D2 (human) = FGFR3-D2 (human) (UniProt P22607); experiment: SPR (Biacore)
[2] = biological target: FGFR3-IIIb (D2D3) (human); experiment: SPR (Biacore)
FGFR3-IIIb (human) [3] = experiment: SPR (Biacore T100), IgG captured by anti-human Fc, FGFR flowed
FGFR3-IIIb (human) [4] = experiment: blocking ELISA: FGFR3-IIIb-Fc captured on an anti-human Fc plate, antibody titrated, FGF-1 (with heparin) is the blocked ligand, bound FGF-1 read as OD450

Sequence of R3Mab (antibody) (VH): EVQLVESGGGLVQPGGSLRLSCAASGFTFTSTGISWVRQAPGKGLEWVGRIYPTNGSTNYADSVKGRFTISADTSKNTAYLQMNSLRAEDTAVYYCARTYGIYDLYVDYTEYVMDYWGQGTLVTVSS
Sequence of R3Mab (antibody) (VL): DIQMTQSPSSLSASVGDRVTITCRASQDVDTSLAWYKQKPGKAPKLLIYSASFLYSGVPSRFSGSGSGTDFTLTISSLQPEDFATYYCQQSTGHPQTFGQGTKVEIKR
Sequence of FGFR3-IIIb (human) (chain, as listed by the source limits assumed): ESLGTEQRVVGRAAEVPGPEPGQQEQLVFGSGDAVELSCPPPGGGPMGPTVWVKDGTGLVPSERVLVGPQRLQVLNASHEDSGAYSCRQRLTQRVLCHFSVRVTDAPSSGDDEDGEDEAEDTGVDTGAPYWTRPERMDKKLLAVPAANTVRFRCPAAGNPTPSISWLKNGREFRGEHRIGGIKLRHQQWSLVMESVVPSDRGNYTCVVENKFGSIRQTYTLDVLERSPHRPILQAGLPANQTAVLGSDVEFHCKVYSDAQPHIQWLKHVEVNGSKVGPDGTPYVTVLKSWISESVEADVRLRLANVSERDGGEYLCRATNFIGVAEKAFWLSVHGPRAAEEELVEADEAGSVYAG
Sequence of FGFR3-IIIb (D2D3) (human) (chain, as listed by the source limits assumed): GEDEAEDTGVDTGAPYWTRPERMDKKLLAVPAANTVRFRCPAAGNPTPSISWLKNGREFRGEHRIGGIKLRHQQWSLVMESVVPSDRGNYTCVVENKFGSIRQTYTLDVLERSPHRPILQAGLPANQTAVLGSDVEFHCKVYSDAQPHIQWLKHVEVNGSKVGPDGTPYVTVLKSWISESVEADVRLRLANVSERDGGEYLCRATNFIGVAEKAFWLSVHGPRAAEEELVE
Sequence of FGFR3-D2 (human) (P22607 150-248 limits assumed): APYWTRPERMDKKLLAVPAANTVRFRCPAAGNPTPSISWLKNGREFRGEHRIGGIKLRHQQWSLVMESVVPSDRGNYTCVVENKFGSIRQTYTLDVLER

- Kd (FGFR3-IIIb (human) [1]): 0.24 nM
- Kd (FGFR3-D2 (human)): 0.26 nM
- Kd [2]: 0.24 nM
- Kd (FGFR3-IIIb (human) [3]): 0.24 nM
- IC50 (read off the curve) (FGFR3-IIIb (human) [4]): 1 to 2 nM
Substance: R3Mab (antibody)
